T1: human Angiopoietin-1 (human, UniProt Q15389 20-498, limits assumed)
T1 construct: Bought recombinant protein (R&D Systems 293-AN-025/CF) or supernatant of transfected 293F cells; also called Ang-1; recombinant Ang-1
T1 sequence: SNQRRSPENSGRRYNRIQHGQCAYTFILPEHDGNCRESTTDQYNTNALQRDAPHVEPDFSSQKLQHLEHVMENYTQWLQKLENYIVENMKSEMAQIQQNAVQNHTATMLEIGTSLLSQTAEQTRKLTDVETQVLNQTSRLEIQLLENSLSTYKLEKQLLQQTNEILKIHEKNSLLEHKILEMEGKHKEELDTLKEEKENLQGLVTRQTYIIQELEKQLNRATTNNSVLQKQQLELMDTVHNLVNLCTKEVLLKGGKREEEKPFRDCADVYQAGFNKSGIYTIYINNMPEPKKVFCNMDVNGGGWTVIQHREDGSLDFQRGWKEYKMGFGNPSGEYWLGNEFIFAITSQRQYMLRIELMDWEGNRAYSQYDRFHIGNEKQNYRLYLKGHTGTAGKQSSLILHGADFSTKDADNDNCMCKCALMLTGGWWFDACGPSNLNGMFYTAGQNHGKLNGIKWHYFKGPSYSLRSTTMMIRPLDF

B1: human Angiopoietin-2 (ligand)
chain: YNNFRKSMDSIGKKQYQVQHGSCSYTFLLPEMDNCRSSSSPYVSNAVQRDAPLEYDDSVQRLQVLENIMENNTQWLMKLENYIQDNMKKEMVEIQQNAVQNQTAVMIEIGTNLLNQTAEQTRKLTDVEAQVLNQTTRLELQLLEHSLSTNKLEKQILDQTSEINKLQDKNSFLEKKVLAMEDKHIIQLQSIKEEKDQLQVLVSKQNSIIEELEKKIVTATVNNSVLQKQQHDLMETVNNLLTMMSTSNSAKDPTVAKEEQISFRDCAEVFKSGHTTNGIYTLTFPNSTEEIKAYCDMEAGGGGWTIIQRREDGSVDFQRTWKEYKVGFGNPSGEYWLGNEFVSQLTNQQRYVLKIHLKDWEGNEAYSLYEHFYLSSEELNYRIHLKGLTGTAGKISSISQPGNDFSTKDGDNDKCICKCSQMLTGGWWFDACGPSNLNGMYYPQRQNTNKFNGIKWYYWKGSGYSLKATTMMIRPADF
notes: Mostly bought recombinant protein (R&D Systems 623-AM/CF, 623-AN; biotinylated BT623) or supernatant of transfected 293F cells; also called Ang-2; rhAng-2
B2: recombinant human Tie2/Fc fusion protein (Fc fusion, UniProt Q02763 23-745, looked up, not shown: a dimerising Fc or GST)
chain: AMDLILINSLPLVSDAETSLTCIASGWRPHEPITIGRDFEALMNQHQDPLEVTQDVTREWAKKVVWKREKASKINGAYFCEGRVRGEAIRIRTMKMRQQASFLPATLTMTVDKGDNVNISFKKVLIKEEDAVIYKNGSFIHSVPRHEVPDILEVHLPHAQPQDAGVYSARYIGGNLFTSAFTRLIVRRCEAQKWGPECNHLCTACMNNGVCHEDTGECICPPGFMGRTCEKACELHTFGRTCKERCSGQEGCKSYVFCLPDPYGCSCATGWKGLQCNEACHPGFYGPDCKLRCSCNNGEMCDRFQGCLCSPGWQGLQCEREGIQRMTPKIVDLPDHIEVNSGKFNPICKASGWPLPTNEEMTLVKPDGTVLHPKDFNHTDHFSVAIFTIHRILPPDSGVWVCSVNTVAGMVEKPFNISVKVLPKPLNAPNVIDTGHNFAVINISSEPYFGDGPIKSKKLLYKPVNHYEAWQHIQVTNEIVTLNYLEPRTEYELCVQLVRRGEGGEGHPGPVRRFTTASIGLPPPRGLNLLPKSQTTLNLTWQPIFPSSEDDFYVEVERRSVQKSDQQNIKVPGNLTSVLLNNLHPREQYVVRARVNTKAQGEWSEDLTAWTLSDILPPQPENIKISNITHSSAVISWTILDGYSISSITIRYKVQGKNEDQHVDVKIKNATITQYQLKGLEPETAYQVDIFAENNIGSSNPAFSHELVTLPESQAPADLGGGK
notes: Bought fusion protein; also called hTie2/Fc; soluble Tie2/Fc

Legend:
[1] = target: B2; assay: FACS competition: binding of His-tagged recombinant human Ang-2 to Tie2 on HEK293F/Tie2 transfectants, soluble Tie2/Fc titrated, n = 3
Procedure: (§1) Cell suspension of 4 million cells/mL in FACS Buffer were prepared, and then aliquoted to a 96-well polypropylene plate with 50 ul per well. […] Cells were washed by centrifuging the plate at 1,200 rpm for 5 minutes, removing the supernatant by aspirating, and resuspending the cells with 200 ul per well of FACS Buffer. Washing procedures were repeated twice. The cells were then suspended with 100 ul of mouse Anti-6×-Histidine antibody diluted to 2 ug/ml in FACS Buffer, and incubated at room temperature for 30 minutes. After washing, the cells were suspended in 100 ul of PE-conjugated goat anti-mouse-IgG, which was diluted 1:100 in FACS Buffer, for incubation at room temperature for 30 minutes. The volume of the samples were brought to 300 ul with FACS Buffer, and measured with FACS Calibur.

human Angiopoietin-1 = target: T1, human Angiopoietin-1; assay: FACS: inhibition of Ang-1 binding to HEK293F/Tie2 cells
Procedure: as §1

human Angiopoietin-2 = target: B1; assay: FACS: inhibition of Ang-2 binding to HEK293F/Tie2 cells
Procedure: as §1

Binder | binding result [1] | EC50 (human Angiopoietin-1) [nM] | EC50 (human Angiopoietin-2) [nM]
B1 | binds | – | –
B2 | – | 18.7 | 25.7

From patent publication US20080267971A1 (published 2008)
